Measurements as given in the RNAGym collection of RNA variant scans (doi:10.1073/pnas.2313332121).

B1: TPR t1 (parent)
chain: GACCAAUCUGCCCUCAGAGCUCGAGAACAUCUUCGGAUGCAGAGGAGGCAGGCUUCGGUGGCGCGAUAGCGCCAACGUCCUCAACCUCCAAUGCAUCCCACCACAUGAUGAUGCCUGAAGAGCCUUGGUUUUUUG

Variants of: B1
Assay: polymerase ribozyme fitness, log enrichment relative to wild type (log ratio); higher = more active; in vitro selection for triplet polymerase activity
Method in brief: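 Libraries of mutants in each subunit of a heterodimeric triplet polymerase ribozyme were generated by PCR and transcribed. In triplicate, each went through one in vitro selection round: annealing with biotinylated primer, partner subunit and triplets; frozen incubation at −7 °C; gel excision of extended constructs; streptavidin-bead capture; RT-PCR. Fitness, taken from Illumina sequencing of input and output libraries, is the logarithm of a genotype's enrichment over wild-type enrichment, averaged across replicates with inverse-variance weights. The logarithm is base 2, and genotypes needed ≥10 input reads and ≥1 read per output to be kept.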

Variant | polymerase ribozyme fitness (log ratio)
GACCAAUCUGCCCUCAGAGCUCGAGAACAUCUUCCGAUGCAGAGGAGGCAGGCUUCGGUGGCCCGAUAGCGCCAACGUCCUCAACCUCCAAUGCAUCCCACCACAUGAUGAUGCCUGAAGAGCCUUGGUUUUUUG [G35C G63C] | -5.87
GACCAAUCUGCCCUCAGAGCUCGAGAACAUCUUCUGAUGCAGAGGAGGCAGGCUUCGGUGGCGCGAUAUCGCCAACGUCCUCAACCUCCAAUGCAUCCCACCACAUGAUGAUGCCUGAAGAGCCUUGGUUUUUUG [G35U G69U] | -0.908
GACCAAUCUGCCCUCAGAGCUCGAGAACAUCUUCGAAUGCAGAGGAGGUAGGCUUCGGUGGCGUGAUAGCGCCAACGUCCUCAACGUCCAACGCAUCCCACCACAUGAUGAUGCCUGAAGAGCCUUGGUUUUUUG [G36A C49U C64U C86G U92C] | -6.86
GACCAAUCUGCCCUCAGAGCUCGAGAACAUCUUCCGAUGCAGAGGAGGCAGGCUUCGGUGCCGAGAUAGCGCCAACGUCCUCAACCUCCAAUGCAUCCCACCACAUGAUGAUGCCUGAAGAGGCUUGGUUUUUUG [G35C G61C C64A C123G] | -6.08
GACCAAUCUGCCCUCAGAGCUCGAGAACAUCUUCUGAUGCAGAGGAGGCAGGUUUCGGUGGCGCGAUAGCGCCAACGUCCUCAACCUCCAAUGCAUCCCACCACAUGAUGAUGCCUGAAGAGCGUUGGUUUUUUG [G35U C53U C124G] | -4.66
GACCAAUCUGCCCUCAGAGCUCGAGAACAUCUUCGAAUGCACAGGAGGCAGGCUUCGGUGGCGCGAUAGCGCCAACGUCCUCAUCCUCCAAUGCAUCCCACCACAAGAUCAUGCCUGAAGAGUCUUGAUUUUUUG [G36A G42C A84U U106A G110C C123U G128A] | -7.57
GACCAAUCUGCCCUCAGAGCUCGAGAACAUCUUCCGAUGCAGAGGAGGCAGUGUUCGGUGGCGCGAUAGCGCCAACGUCCUCAACCUCCGAUGCAUCUCACCACAUGAUGAUGCCUGAAGAGCCUUGGUUUUUUG [G35C G52U C53G A90G C98U] | -6.7
GACCAAUCUGCCCUCAGAGCUCGAGAACAUCUUCUGAUGCAGAGGAGGCAGGCUUCGGUGGCGCGAUAGCGCCAACGUCCUCAACCUCCAAUGCAUCCCACCACAUGAUGAUGCCUGAAGGGCCUUGGUUUUUUG [G35U A121G] | -3.56
GACCAAUCUGCCCUCAGAGCUCGAGAACAUCUUCUGAUGCAGAGGAGGCAGGCUUCGGUGGCGCGAUAGCGCCAACGUCCUCAACCUCCCAUGCAUGCCACCACAUGAUGAUGCCUGAAGCGCCUUGGUUUUUUG [G35U A90C C97G A121C] | -7.34
GACCAAUCUGCCCUCAGAGCUCGAGAACAUCUUCGAGUGCAGAGGAGGCAGGCUUCGGUGGCGCGAUAGAGCCAACGUCCUCAACCUCCAAUGCAUCCCACCACAUGAUGAUGCCUGAAGAGCCUUGGUUUUUUG [G36A A37G C70A] | -3.19
GACCAAUCUGCCCUCAGAGCUCGAGAACAUCUUCUGAUGCAGAGGAGGCAGGCUUCGGUGGCGCGAUAACGCCAACGUCCUCAACCUCCAAUGCAUCCCACCACCAGAUGAUGCCUGAAUAGCCUUGGUUUUUUG [G35U G69A A105C U106A G120U] | -6.28
GACCAAUCUGCCCUCAGAGCUCGAGAACAUCUUCGAAUGCAGAGGAGGCAGGCUUCGGUGGCGUGAUAGCGCCAACGUCCUCAACCUUCAAUGCAUCCCAGCACAUGAUGAUGCCUGAAGAGCCUUGGUUUUUUG [G36A C64U C88U C101G] | -1.84
GACCAAUCUGCCCUCAGAGCUCGAGAACAUCUUCGAAUGCAAAGGAGGCAGGCUUCGGUGGCGCGAUAGCGCCGACGUCCUCAACCUCCAAUGCAUCCCACCACAUGAUGAUGCCUGAAGAGCCUUCGUUUUUUG [G36A G42A A74G G127C] | -3.95
GACCAAUCUGCCCUCAGAGCUCGAGAACAUCUUCGAAUGCAGAGGAGGCAGGCUUCGGUGGCGCGAUAGCGCCAACGUCCUCAACGUCCAAUGCAUCCCACCACAUGAUGAUGCCUGAAGAGCCUUGGUUUUUUG [G36A C86G] | -2.04
GACCAAUCUGCCCUCAGAGCUCGAGAACAUCUUCGAAUGCAGAGGAGGCAGGCUUCGGUGGCGCGAUAGCGGCAACGUCCUCAACCUCCAAUGCAUCCCACCACAUGAUUAUGCCUGAAGAGCCUUGGUUUUUUG [G36A C72G G110U] | -4.37
GACCAAUCUGCCCUCAGAGCUCGAGAACAUCUUCGAAUGCAGAGGAGGCAGGCUUCGGUGGCGCGAUAGCGCCAACGUCCUCAACCUCCAAUGCAUCCCACCACAUGAUGAUGCCUGAAGUGCCUUGGUUUUAUG [G36A A121U U133A] | 1.79
GACCAAUCUGCCCUCAGAGCUCGAGAACAUCUUCGAAUGAAGAGGAGGCAGGCUUUGGUGGCGCGAUAGCGCCAACGUCCUCAACCUCCAAUGCAUCCCACCACAUGAUAAUGCCAGAAGAGCAGUGGUUUUUUG [G36A C40A C56U G110A U116A C124A U125G] | -7.28
GACCAAUCUGCCCUCAGAGCUCGAGAACAUCUUCGAAUGCAGAGCAGGCAGGCUUCGGUGGCGCGAUAGCGCCAACGUCCUCGACCUCCAAUGCAUCCCAGCACAUGAUGAUGCCUGAAGAGCCUUGGUUUUUUG [G36A G45C A83G C101G] | -2.84
GACCAAUCUGCCCUCAGAGCUCGAGAACAUCUUCUGAUGCAGAGGAGGCAGGCUUCGGUGGCGCGAUAGCGCCGACGUCCUCAACCUCUAAUGCAUCCCACCACAUGAUGAUGCAUGAAGAGCCUUGGUUUUUUG [G35U A74G C89U C115A] | -6.17
GACCAAUCUGCCCUCAGAGCUCGAGAACAUCUUCUUAUGCAGAGGAGGCAGGCUUCGGUGGCGCGAUAGCGCCAACGUCCUCAACCUCCAAUGCAUCCCACCACAUGAUGAUGCCUGAAGAGCUUUGGUUUUUUG [G35U G36U C124U] | -5.29
GACCAAUCUGCCCUCAGAGCUCGAGAACAUCUUCUGAUGCAGAGGAGGCAGGCUUCGGUGGCGUGAUAGCGCCAACGUCCUCAACCUCCUAUGCAUCCCACCACAAGAUGAUGCGUAAGGAGCCUUGGUUUUUUG [G35U C64U A90U U106A C115G G117A A119G] | -6.88

Variant | polymerase ribozyme fitness (log ratio)
GACCAAUCUGCCCUCAGAGCUCGAGAACAUCUUCGAAUGCAGAGGAGGCAGGCUUCGGUGGCGCGAUAGCGGCAACGUCCUCAACCUCCAAUGCAUCCCACCACAUGAUGAUGCCUAAAGAGCCUUGGUUUUUUG [G36A C72G G117A] | -3.71
GACCAAUCUGCCCUCAGAGCUCGAGAACAUCUUCGAAUGCAGAGGAGGCAGGCUUCGGUGGCGCGAUAGCGUCAACGUCCUCAACCUCCAAUGCAUCCCACCACAUGAUGAUGCCUGAAGAGCCUUGGUUUUUUG [G36A C72U] | -1.29
GACCAAUCUGCCCUCAGAGCUCGAGAACAUCUUCUGAUGCAAAGGAGGCAGGCUUCGGUGGCGCGAUAGCGCCAACGUCCUCAACCUCCAAUGCAUCCCACCACAUGAUGAUGCCUGAAGAGCCUUGGUUUUUUG [G35U G42A] | -6.8
GACCAAUCUGCCCUCAGAGCUCGAGAACAUCUUCGAAUGCAGAGGAGGAAGGCUUUGGUGGCGCGAUAGCGCCAACGUCCUCAACCUCCAAUGCAUCCCACCACAUGAUGAUGCCUGAAGAGCCUUGGUUUUUUG [G36A C49A C56U] | -0.697
GACCAAUCUGCCCUCAGAGCUCGAGAACAUCUUCUGAUGCAGAGGAGGCAGGCUUCGGUGGCGGGAUAGCGCCAACGUCCUCAACCUCCAAUGCAUGCCACCACAUGAUGAUGCCUCAAGAGCCUUGGUUUUUUG [G35U C64G C97G G117C] | -7.13
GACCAAUCUGCCCUCAGAGCUCGAGAACAUCUUCUGAUGCAGAGGAGGCAGGCUUCGGUGGCGCGAUAGCGCCAACGUACUCAACCUCCAAUGCAUCCCACCACAUGAUGAUGCCUGAAGAGCCUUGGUUUUUUG [G35U C79A] | -6.66
GACCAAUCUGCCCUCAGAGCUCGAGAACAUCUUCGAAUGCAGAGGAGGCAGGCUUCGGUGGCGCGAUAGCGCCAACGUCCUCAAACUCCAAUGCAUCCCACCACAUGAUGAUGCCUAAAGAGCCUUGGUUUUUUG [G36A C85A G117A] | -3.37
GACCAAUCUGCCCUCAGAGCUCGAGAACAUCUUCGAGUGCAGAGGAGGCAGGCUUCGGUGGCGCGAUAGCGCCAACGUCCUCAACCUCCAAUGCAUCCCACCACAUGAUGGUCCCUGAAGCGCCUUGGUUUUUUG [G36A A37G A111G G113C A121C] | -5.88
GACCAAUCUGCCCUCAGAGCUCGAGAACAUCUUCGAAUGCAGAGGAGGCAGGCUUCGGUGGCGCGAUAGCGCCAACGUCCUCAACCUCCAAUGCAUCCCACCACAUGAUGAUGACUGAAGAGCCUUGGUUUUUUG [G36A C114A] | -2.96
GACCAAUCUGCCCUCAGAGCUCGAGAACAUCUUCUGAUGCAGAGGAGGCAGGCUUCGGUGGCGCGAUAGCGCCAUCGUCCUCAACCUCCAAUGCAUCCCACCACAUGAUGAUGCCUGAAGAGCAUUGGUUUUUUG [G35U A75U C124A] | -4.78
GACCAAUCUGCCCUCAGAGCUCGAGAACAUCUUCUGAUGCAGAGGAGGCAGGCUUCGGUGGCUCGAUAGCGUCAACGUCCUCAACCUCCAAUGCAUCCCACCACAUGAUGAUGCCUGAAGAGCCUUGGUUUUUUG [G35U G63U C72U] | -7.14
GACCAAUCUGCCCUCAGAGCUCGAGAACAUCUUCGAAUGCAGAGGAGGCAGGCUUUGGUGGCGCGAUAGCGCCAACGUCCUCAACCUCCAAUGCAUCCCACCACAUGAUGAUGCCUGAAGAGCCUUGGUUUUUUG [G36A C56U] | -0.261
GACCAAUCUGCCCUCAGAGCUCGAGAACAUCUUCGAAUGCAGAGGAGGCAGGCUUCGGUGGCGCGAUGGCGCCAACGUCCUCAACCUCCAAUGCAUCCCACCACAUGAUGAUGCCUGAAGAGCCUUGGUUUUUUG [G36A A68G] | -3.57
GACCAAUCUGCCCUCAGAGCUCGAGAACAUCUUCCGAUGCAGAGGAGGCAGGCUUCGGGGGCGCGAUAGCGCCAAAGUCCUCAACCUCCAAUGCAUCACACCACAUGAUGAUGCCUGAAGAGCCUUGGUUUUUUG [G35C U59G C76A C98A] | -5.8
GACCAAUCUGCCCUCAGAGCUCGAGAACAUCUUCGAAUGCAGAGUAGGCAGGCUUCGGAGGCGCGAUAGCGGCAACGUCCUCAACCUCCAAUGCAUGUCACAACAUGAUGGUGCCUGAAGAGCCUUGGUUUUUUG [G36A G45U U59A C72G C97G C98U C102A A111G] | -6.75
GACCAAUCUGCCCUCAGAGCUCGAGAACAUCUUCGAAUGCAGAAGAGGCAGGCUUCGGUGUCGCGAUAGCGCCAACUUCCUCAUCCUCCAAUGCAUCCCACCACAUGAUGAUGCCUGAAGAGCCUUGGUUUUUUG [G36A G44A G61U G77U A84U] | -3.54
GACCAAUCUGCCCUCAGAGCUCGAGAACAUCUUCGAAUGCAGAGGAAGCAGGCUUCGGUGUCGCGAUAGCGCCAACGUCCUCAACCUCCAAUGCAUCCCACCACAUGAUGAUGCCUGAAGAGCCUUGGUUUUUUG [G36A G47A G61U] | -1.37
GACCAAUCUGCCCUCAGAGCUCGAGAACAUCUUCGAAUGCAGAGGAGGCAGGCUUCGGUGGCGCGAUAGCGCCAACGUCCUCAACCUCCAAUGCAUCCCACCACAUGAUGAUGCCUGAAGCGCCUUGGUUUUUUG [G36A A121C] | 0.979
GACCAAUCUGCCCUCAGAGCUCGAGAACAUCUUCGAAUGCAGAGGAGGAAGGCUUGGGUGGCGCGAUAGCGCCAACGUCAUCAACCUCCGAUGCAUCCCACCACAUGAUGAUGCCUGAAGAGCCUUGGUUUUUUG [G36A C49A C56G C80A A90G] | -4.92
GACCAAUCUGCCCUCAGAGCUCGAGAACAUCUUCGAAUGCAUAGGAGGCAGGCUUCGGUGGCGCGAUAGCGCCAACGUCCUCAACCUCCAAUGCAUCCCACCACAUGAUGAUGCCUGAAGAGCCUUGGUUUUUUG [G36A G42U] | -2.99
GACCAAUCUGCCCUCAGAGCUCGAGAACAUCUUCGAAUGCAGAGGAGGCAGGCUUCGGUGGCGCGAUAGCGCCAACGUCCUCAACCUCAAAUGCAUCCCACCACAUGAUGAUGCCUGAAGAGCCUUGGUUUUUUG [G36A C89A] | -2.49
